Measured values taken from the supplement of paper PMC12764529.
± gives the half width of the 95% confidence interval.

Assays:
[1] = folding stability dG unfold (combined trypsin and chymotrypsin); higher = more stable
How it was run: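 K50 was inferred by Bayesian fitting of sequencing counts obtained after protease digestion of designed mini-proteins. Unfolding free energy was derived by comparison with a sequence-predicted unfolded-state K50 and a shared folded-state K50, for each protease or both combined. The mini-proteins were under 80 residues, had no cysteine, were carried in a PA-tagged cDNA display construct, and were kept only if AlphaFold2 dimer inter-PAE exceeded 15.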

[2] = folding stability dG unfold from trypsin proteolysis; higher = more stable
Method: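 Folding stability of de novo designed mini-proteins (<80 aa, no Cys; designed by TrROS, TrMRF, ProteinMPNN and the joint model) was measured by cDNA display proteolysis with trypsin and chymotrypsin. Each protease was used at 11 concentrations in a threefold dilution series plus a no-protease condition. K50 was inferred by Bayesian fitting of sequencing counts, and dG unfold was derived against a sequence-predicted unfolded-state K50 (Tsuboyama et al. method). Sequences shown include variable-length N-terminal GS-type padding (SAGGSAGG...) inside a display construct carrying a PA tag. Rows were kept only if the AF2 dimer inter-PAE was >15, to exclude likely homo-oligomers.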

Sequence: SAGGSAGGSAGMLLLTFPERGISYEIKLGDKEEEREADPEEVEKLIAELPNYEVKEVELLSAGGSAGGSAGG [r11_57_JUSTAS]
- folding stability dG unfold [1]: 0.288 ± 0.26 kcal/mol
- folding stability dG unfold [2]: 0.559 ± 0.1 kcal/mol

Sequence: SAGGSAGGSAGMPLPIKTLTEVSTVEGVGITLTALDNGLVIVEKSDGKVTVIPLSAYEAQSAGGSAGGSAGG [r11_254_JUSTAS]
- folding stability dG unfold [1]: -0.0335 ± 0.073 kcal/mol
- folding stability dG unfold [2]: 0.643 ± 0.04 kcal/mol

Sequence: SAGGSAGGSAGMSPNIVSYETVESDKNGNIIKKTTYLYSDNTIITETFSPKKKKKIQTFSKESAGGSAGGSA [r18_302_JUSTAS]
- folding stability dG unfold [1]: < -1 kcal/mol
- folding stability dG unfold [2]: -0.434 ± 0.29 kcal/mol

Sequence: SAGGSAGGSAGMYTVSPVGSGGGGSMIRIENPETGEVIELDFDSEEEAAAAAEELKEKLASAGGSAGGSAGG [r11_848_JUSTAS]
- folding stability dG unfold [1]: -0.22 ± 0.17 kcal/mol
- folding stability dG unfold [2]: 0.343 ± 0.043 kcal/mol

Sequence: SAGGSAGGSAGNIAERLQEAFPDYGIEVTDITPNGSITVTSRGPPGHRKKIQKAVKELLNSAGGSAGGSAGG [r11_418_TrROS]
- folding stability dG unfold [1]: < -1 kcal/mol
- folding stability dG unfold [2]: -0.879 ± 0.57 kcal/mol

Sequence: SAGGSAGGSAGPGEPVPIRLKIYGPNGQPHTHPFPVKNPEEFKDNLRFPVPNGWAVEIEYSAGGSAGGSAGG [r11_671_TrROS]
- folding stability dG unfold [1]: < -1 kcal/mol
- folding stability dG unfold [2]: -0.719 ± 0.37 kcal/mol

Sequence: SAGGSAGGSAGPVISKSEVESTEIIFSYNNKHEITVKKVKKTITTTIPPVKLKPDGTPILSAGGSAGGSAGG [r11_558_JUSTAS]
- folding stability dG unfold [1]: -0.349 ± 0.54 kcal/mol
- folding stability dG unfold [2]: -0.803 ± 0.51 kcal/mol

Sequence: SAGGSAGGSAGSKEKLEEEAKAKGRPVTPLPDGTLKVETVDPNKGTASTTVIDPETAEKLSAGGSAGGSAGG [r11_994_JUSTAS]
- folding stability dG unfold [1]: < -1 kcal/mol
- folding stability dG unfold [2]: -0.626 ± 0.058 kcal/mol

Sequence: SAGGSAGGSAGSMPIVLRAEFPSNDETVEIPVTSPEEAERVAQELAAQPDWPLEKVDFGGSAGGSAGGSAGG [r11_951_JUSTAS]
- folding stability dG unfold [1]: < -1 kcal/mol
- folding stability dG unfold [2]: 0.414 ± 0.064 kcal/mol

Sequence: SAGGSAGGSAGSPPGSTTLRAETVVVELPAAEAYTPEGERVELPRVIVEETVERELEAGLSAGGSAGGSAGG [r11_907_JUSTAS]
- folding stability dG unfold [1]: -0.216 ± 0.31 kcal/mol
- folding stability dG unfold [2]: 0.427 ± 0.043 kcal/mol

Sequence: SAGGSAGGSAGSVEEIESPDGTKTLVTKEPDSIKTTVTKPGGIPTLVTIDSKTGKWSVSLSAGGSAGGSAGG [r11_590_JUSTAS]
- folding stability dG unfold [1]: -0.714 ± 0.63 kcal/mol
- folding stability dG unfold [2]: -0.595 ± 0.24 kcal/mol

Sequence: SAGGSAGGSAGSYEFDPSKSALVRVTLQPPDGVPVEIEIPVEELEEILPGDRPVLSIEVSSAGGSAGGSAGG [r17_449_JUSTAS]
- folding stability dG unfold [1]: -0.838 ± 0.51 kcal/mol
- folding stability dG unfold [2]: 0.0674 ± 0.14 kcal/mol

Sequence: SAGGSAGGSAGTKEYEVKVGDKIVRISETPDSRVIDYPETDFKKEFSSDFPGKPIAEYLASAGGSAGGSAGG [r11_648_TrMRF]
- folding stability dG unfold [1]: < -1 kcal/mol
- folding stability dG unfold [2]: -0.781 ± 0.49 kcal/mol

Sequence: SAGGSAGGSAGTVIYIDPETDMARVLVPDADGVLVDERAVPPDQLPDVLSQGNFTVVPAPSAGGSAGGSAGG [r11_159_TrMRF]
- folding stability dG unfold [1]: -0.943 ± 0.84 kcal/mol
- folding stability dG unfold [2]: -0.327 ± 0.36 kcal/mol

Sequence: SAGGSAGGSAGVELPPSLSAEVTPVPGKPGLSRVTITLPDGVVRTIDLERKGDKWIVNPRSAGGSAGGSAGG [r11_177_JUSTAS]
- folding stability dG unfold [1]: < -1 kcal/mol
- folding stability dG unfold [2]: -0.0818 ± 0.14 kcal/mol

Sequence: SAGGSAGGSAMILVPKEKLEEAAKKLNLNIVEVKPVPPGIEVAEVKVEGSEEQKKAFLEALLSAGGSAGGSA [r18_175_JUSTAS]
- folding stability dG unfold [1]: 0.0149 ± 0.2 kcal/mol
- folding stability dG unfold [2]: 0.216 ± 0.082 kcal/mol

Sequence: SAGGSAGGSAMKPERIELPGNEVAVIEKVPEAGVYIVTFKKPEGDEPLGEKIFKPDEIDLKLESAGGSAGGS [r20_190_JUSTAS]
- folding stability dG unfold [1]: < -1 kcal/mol
- folding stability dG unfold [2]: -1.17 ± 0.24 kcal/mol

Sequence: SAGGSAGGSAMLTKTIKLPNGKPASVTITTLSEGSSPGSSVDPKLVINADPNIPKEIVDKLLSAGGSAGGSA [r18_272_JUSTAS]
- folding stability dG unfold [1]: -0.685 ± 0.13 kcal/mol
- folding stability dG unfold [2]: -0.624 ± 0.077 kcal/mol

Sequence: SAGGSAGGSAMTPDELKDNFPNMPVEPRPLNNSTQWKIEMPGGMRIEIQYDPGKPKIDIEEGSAGGSAGGSA [r18_13_TrROS]
- folding stability dG unfold [1]: -0.622 ± 0.23 kcal/mol
- folding stability dG unfold [2]: -0.039 ± 0.064 kcal/mol

Sequence: SAGGSAGGSAPLEELLDVIRSVPANTRAEFPIIVETETGYVPYIARVENPEPGGALIEIEKASAGGSAGGSA [r18_493_TrMRF]
- folding stability dG unfold [1]: < -1 kcal/mol
- folding stability dG unfold [2]: -0.258 ± 0.11 kcal/mol

Sequence: SAGGSAGGSAPPPLPPDAVVTIPNPGSLEEVKKLAEKLREEHGIKKIKITVEPNSVTLTVASAGGSAGGSAG [r3_73_JUSTAS]
- folding stability dG unfold [1]: < -1 kcal/mol
- folding stability dG unfold [2]: 0.476 ± 0.15 kcal/mol

Sequence: SAGGSAGGSASLPEKLAQEAKEKILKENPDVEVTEIVVTKLPPEKYTVTIKTPDGKTETIPLSAGGSAGGSA [r18_423_JUSTAS]
- folding stability dG unfold [1]: -0.308 ± 0.1 kcal/mol
- folding stability dG unfold [2]: -0.00229 ± 0.023 kcal/mol

Sequence: SAGGSAGGSASSPSSPVKVTVTVTAPDSLVKTITVTKTPEGVIDLVLPSDIPSDYKITIIESAGGSAGGSAG [r3_44_JUSTAS]
- folding stability dG unfold [1]: -0.699 ± 0.51 kcal/mol
- folding stability dG unfold [2]: 0.0537 ± 0.08 kcal/mol

Sequence: SAGGSAGGSASVSSPERFTVPRPDGTPVEVTLVEPEKGYYEVTDPATGERTRLPIEDIPPVSAGGSAGGSAG [r3_213_JUSTAS]
- folding stability dG unfold [1]: < -1 kcal/mol
- folding stability dG unfold [2]: -0.607 ± 0.12 kcal/mol

Sequence: SAGGSAGGSATVDEVIKEAREEAREEHPNYPPGQTHTIKIRDPDNGEKVKIRFTNDGKIEISAGGSAGGSAG [r3_441_TrROS]
- folding stability dG unfold [1]: < -1 kcal/mol
- folding stability dG unfold [2]: -0.0324 ± 0.057 kcal/mol

Sequence: SAGGSAGGSDILKNLPPGHKRVEIMFIPNMPMEKMKRMAKEIAPILRKRGVDVEIKVIPPDEMSAGGSAGGS [r12_456_TrROS]
- folding stability dG unfold [1]: 0.118 ± 0.36 kcal/mol
- folding stability dG unfold [2]: 0.859 ± 0.17 kcal/mol

Sequence: SAGGSAGGSGMEEAIEKAKKEILEKNPDLPPNAVVNEPILVKDPSTDEEYVIPVTFTIPENNLSAGGSAGGS [r12_591_JUSTAS]
- folding stability dG unfold [1]: -0.61 ± 0.67 kcal/mol
- folding stability dG unfold [2]: -0.137 ± 0.063 kcal/mol

Sequence: SAGGSAGGSGMKPAKVLKVEEFFDPKNNTSFKKVEAELPDRKITLELPPGEPVDENSTILVEESAGGSAGGS [r20_49_JUSTAS]
- folding stability dG unfold [1]: -0.759 ± 0.47 kcal/mol
- folding stability dG unfold [2]: -0.428 ± 0.28 kcal/mol

Sequence: SAGGSAGGSGMVSSVVKHTVELNVPENRPNAEELAAELRAAHPGVTVVEITETPNKAVITVEESAGGSAGGS [r12_454_JUSTAS]
- folding stability dG unfold [1]: < -1 kcal/mol
- folding stability dG unfold [2]: 0.296 ± 0.062 kcal/mol

Sequence: SAGGSAGGSIEIDHDRDPGTNRYTATVEIPDPDGKGLEVEVQMNGDPEDAAKTAAKTVLEEFNSAGGSAGGS [r20_33_TrROS]
- folding stability dG unfold [1]: < -1 kcal/mol
- folding stability dG unfold [2]: 0.07 ± 0.27 kcal/mol

Sequence: SAGGSAGGSKIPIHIWVPPGGSPKKAKERIRRYIREQMPPGNKDMPIDDIKIDVHVMPPGQPVSAGGSAGGS [r12_384_TrROS]
- folding stability dG unfold [1]: < -1 kcal/mol
- folding stability dG unfold [2]: -0.427 ± 0.9 kcal/mol

Sequence: SAGGSAGGSMDPGQPMEFIQIYPDPDGNLEIHVSEIRIDPDGGAKVTEVEPKRIDDAEDLAKFSAGGSAGGS [r12_386_TrROS]
- folding stability dG unfold [1]: < -1 kcal/mol
- folding stability dG unfold [2]: -0.752 ± 0.19 kcal/mol

Sequence: SAGGSAGGSMMKVRVYARNKDGEEVPVEEIEIPPEVETPEEALKLAEELAKKEGVEEVRVEIESAGGSAGGS [r12_569_TrROS_Hall]
- folding stability dG unfold [1]: -0.609 ± 0.38 kcal/mol
- folding stability dG unfold [2]: -0.13 ± 0.19 kcal/mol

Sequence: SAGGSAGGSMRFVTIKVPGPDTTFTFDTDGDEALEAKLAELEKKHPEIKKENIEKLEVNPGPGSAGGSAGGS [r12_852_JUSTAS]
- folding stability dG unfold [1]: < -1 kcal/mol
- folding stability dG unfold [2]: -0.345 ± 0.52 kcal/mol

Sequence: SAGGSAGGSMSTSESVTVTFPDGSVRKATILKQEKLPNGTVPVEIVDEGGTSVGTRNWTVTAESAGGSAGGS [r12_735_JUSTAS]
- folding stability dG unfold [1]: < -1 kcal/mol
- folding stability dG unfold [2]: -0.456 ± 0.28 kcal/mol

Sequence: SAGGSAGGSMVLIEIYFKGPEKPIVFPAEGPEEVVEKLLELVEENPELGLDNIAEIRAYPGEESAGGSAGGS [r12_852_TrMRF]
- folding stability dG unfold [1]: 0.0303 ± 0.28 kcal/mol
- folding stability dG unfold [2]: 0.425 ± 0.074 kcal/mol

Sequence: SAGGSAGGSMVLIIVPPSKPELAEEKAKELAEKGEIKEYEIKTVSSEEEAEKLAKNYEKVILESAGGSAGGS [r12_679_JUSTAS]
- folding stability dG unfold [1]: -0.324 ± 0.28 kcal/mol
- folding stability dG unfold [2]: -0.171 ± 0.083 kcal/mol

Sequence: SAGGSAGGSMVTTSIDPSGTAKITVTDGGGVPVSTATIPVDPNAILTYDPNNSSISTFSPVSSSAGGSAGGS [r12_1002_JUSTAS]
- folding stability dG unfold [1]: -0.442 ± 0.24 kcal/mol
- folding stability dG unfold [2]: 0.519 ± 0.032 kcal/mol

Sequence: SAGGSAGGSMYRYTVTFPNTGTVLEKEFESLEEAKKYIPKDRPIKEIKVEPVEPPVSPEVLLVSAGGSAGGS [r12_851_JUSTAS]
- folding stability dG unfold [1]: -0.651 ± 0.26 kcal/mol
- folding stability dG unfold [2]: -0.217 ± 0.18 kcal/mol

Sequence: SAGGSAGGSPDNITFKVPDGPVRIENGNNEQEFPPGKTQTIPPKNPNNMRIEAFPPNIIKITPSAGGSAGGS [r20_150_TrROS]
- folding stability dG unfold [1]: < -1 kcal/mol
- folding stability dG unfold [2]: -0.793 ± 0.45 kcal/mol

Sequence: SAGGSAGGSPVTVETSSQTSTVPLPTGPTVTLVTNTTTTTRPVPLSTPRSSSTTTVTTTVTVVSSAGGSAGG [r6_224_JUSTAS]
- folding stability dG unfold [1]: < -1 kcal/mol
- folding stability dG unfold [2]: -0.311 ± 0.11 kcal/mol

Sequence: SAGGSAGGSSDTRTIPIPIDGYPVRISIDMNGSQTIEFPNPENKDDLKDLIPPGYNITEIEPWSAGGSAGGS [r12_9_TrROS]
- folding stability dG unfold [1]: < -1 kcal/mol
- folding stability dG unfold [2]: -0.999 ± 0.36 kcal/mol
